Measurements taken from the supplement of paper PMC9170038.

Tested on: MS2 coat protein
Assay: apparent KD of MS2 coat protein; designed switch direction (-1 OFF switch, 1 ON switch): -1; higher = weaker reporter binding
Outline: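 On Illumina chips, designed RNA switches with common flanks were made by stalled E. coli RNA polymerase. Titrations with SNAP-549-labelled MS2 coat protein, doubling from 0.7 or 1.5 nM to 3 µM, were done with no input, with 200 uM small-molecule ligand, or with an oligonucleotide input. Apparent KD is the median per design over clusters, from curve fits of normalised cluster fluorescence.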

[1] = Eterna round: R95, input ligand: FMN 200 uM
[2] = Eterna round: R95, input ligand: microRNA oligo, concentration not stated
[3] = Eterna round: R95, input ligand: none
[4] = input ligand: microRNA oligo, concentration not stated

Sequence	apparent KD of MS2 coat protein [1]	apparent KD of MS2 coat protein [2]	apparent KD of MS2 coat protein [3]	apparent KD of MS2 coat protein (input ligand: FMN 200 uM)	apparent KD of MS2 coat protein (input ligand: none)	apparent KD of MS2 coat protein [4]
GAUUAUGCGAGCUUUAGGGACAUGAGGAUCACCCAUGUUCGUCUUAUUGGUCUAAAUGCACUAACAUACCUAAAUCU [JMF 23] (puzzle: Sensor v3, turn-off variant 1)	17.7 nM	22.4 nM	19.3 nM	–	–	–
GCCAGAGCAGGAUAUUCAGUAUCACACAUGAGGAUCACCCAUGUCCACGGAAACGUGGAGGGAGAAGGGCUCUGGC [Mat - Exclusion 5 - Eli mod - D96] (puzzle: Exclusion 5)	35.6 nM	126 nM	157 nM	–	–	–
UUCAUGUGAGGAUAUGUGAUCUGCUUUCUGUGUAGAUGAUCACAGAAGGCACAUGAGGAUCACCCAUGUAGAUC [Ex4 - 3 - 29] (puzzle: Exclusion 4)	–	77.3 nM	–	–	–	–
CUCACGUCAGGAUAUCUACAUUAAAUUGGUAACCAAGCAUGAGAGAAGGGACAUGAGGAUCACCCAUGUAAAAC [Ceisusma] (Eterna round: R97, puzzle: Exclusion 4)	–	–	–	42.4 nM	48.7 nM	–
CGCCUGUUAGGAUAUUAGUAGUAGUCAGAAUAGACUAUUACUGAGAAGGAACAUGAGGAUCACCCAUGUUGGCG [Eli x4 4.13] (Eterna round: R97, puzzle: Exclusion 4)	–	–	–	19.9 nM	15.5 nM	–
GACGCUGACCGAGGAUAUACAAUAAAACAACAAACUCCUCGUGUCAGAACAUGAGGAUCACCCAUGUAGAAGGCGGCAGGUCUA [Rilebibidi] (Eterna round: R96, puzzle: Exclusion NG 2)	–	–	–	78.5 nM	58.1 nM	44.4 nM
GCGCAAACGCCAAAAGGCGAAACAACAUGAGGAUCACCCAUGUAGGAUAUCGAUUGCUUUGCAGUCGAGAAGGACAUGAUGCGC [JL ENG3 3.80 Mod 2] (Eterna round: R96, puzzle: Exclusion NG 3)	–	–	–	43.9 nM	20.8 nM	18.5 nM
UCGACGUAAGGAUAUAUAAGGAACGAAGUAAGUUGUAGAAAAUAGAAGGUACAUGAGGAUCACCCAUGUUAAGA [JR_Exclu4_Sub061] (puzzle: Exclusion 4)	19.4 nM	19.6 nM	18.9 nM	–	–	–
GUCAGCUCGUCAGGAUAUACAUGAGGAUCACCCAUGUGAUCAAUAGCAGCUUCGGCUGCAUACAUGUAGAAGGGACGAGCUGAC [ENG2/6-B1] (Eterna round: R96, puzzle: Exclusion NG 2)	–	–	–	55.6 nM	35.5 nM	18.4 nM
GCGCACCUACCAAAAGGUAGGUCAACAUGAGGAUCACCCAUGUAGGAUAUCGAUUGCUUUGCAGUCGAGAAGGAUAUGAUGCGC [JL ENG3 3.80 Mod 12] (Eterna round: R96, puzzle: Exclusion NG 3)	–	–	–	27.2 nM	24 nM	16.6 nM
GUGUAAGGAGGAUAUACAUGAGGAUCACCCAUGUGAAUAAGAUAGAAUAAGAUAAAGUGUAGAAGGCUUAGUGU [Excluse me!!! 25 - Jieux - Exclusion 3] (puzzle: Exclusion 3)	39 nM	38.6 nM	44.7 nM	–	–	–
GAUUAAUGCAAGGAUAUGCUAUUAUUUUAUUUUGCAGAAGGUGCAACAUGAGGAUCACCCAUGUUGGAGGGUAU [JR_E6_Sub026] (puzzle: Exclusion 6)	–	17.4 nM	–	–	–	–
AGCUAGUGCCGAGGAUAUACAUGAGGAUCACCCAUGUAAGGCAGUCGGUUUCUGACUGCCAAUAUGUAGAAGGCGGCGUUGGCA [JL ENG2 1.48] (Eterna round: R96, puzzle: Exclusion NG 2)	–	–	–	45.4 nM	15.7 nM	15.8 nM
GUCACAUGGGUGUAGAAUCACAUGAGGAUCACCCAUGUGACUAACAAGCUUUUUGCUCGUCUUAUGUCUAUGUGAAU [Stov1/17-A2] (Eterna round: R97, puzzle: Sensor, turn-off variant 1)	–	–	–	23.3 nM	37.2 nM	–
GGAGAGUGAGGAUAUACAUGAGGAUCACCCAUGUAUAUCAAAUAAAAUAAAUUCUCAUGUAGAAGGCGCUUUUC [Alacar 3rd Attempt] (Eterna round: R97, puzzle: Exclusion 3)	–	–	–	16.2 nM	14.4 nM	–
UCUCGUUGGCAAGGAUAUCCUACAUUGUUCUGGCCCGGGCAUGCUACAUGAGGAUCACCCAUGUGGGAGAAGGUGCGCCAUUGC [Design 24] (Eterna round: R96, puzzle: Exclusion NG 2)	–	–	–	80.9 nM	65.2 nM	49.7 nM
GGGUGACAUGAGGAUCACCCAUGUCAGGAUAUGGGCUCGGGCUCGAAAGGGUCUGGGUCUAGAAGGGACUGCCC [-36.1, -35.1 kcal, 22%A (-3 GC series)] (Eterna round: R97, puzzle: Exclusion 1)	–	–	–	137 nM	67 nM	–

Sequence	apparent KD of MS2 coat protein [1]	apparent KD of MS2 coat protein [2]	apparent KD of MS2 coat protein [3]	apparent KD of MS2 coat protein (input ligand: FMN 200 uM)	apparent KD of MS2 coat protein (input ligand: none)	apparent KD of MS2 coat protein [4]
AGAGAAUACUCAGGAUAUCUGAAUAGAAAGAGAAGAGAAGGGAGACAUGAGGAUCACCCAUGUGAAGUCUUGAGACUACAUGGU [Prohibition 27 - Jieux - Exclusion NG 1] (Eterna round: R96, puzzle: Exclusion NG 1)	–	–	–	–	–	225 nM
GAAAAGAACGAGGAUAUGUUGGUGCAUACACUUGCAGAAGGCGUUACUUGAGGAUCACCCAAGUGAGACCGAGU [Cetelege] (Eterna round: R97, puzzle: Exclusion 6)	–	–	–	273 nM	124 nM	–
AAACUCUAAGUCAGGAUAUGGCAACGCUAAGGCGACCAGAAGGGACUUGAGGAUCACCCAAGUACCGCUUGUGG [Orardi] (Eterna round: R97, puzzle: Brourd's mod of Exclusion 4)	–	–	–	409 nM	42.7 nM	–
GAUUGACAUGAGGAUCACCCAUGUGAGGAUAUCGGCUGGACCGUGUUGGCUUCGGUUUCGAGAAGGCGCAUAGG [Exclusion 1 V45] (puzzle: Exclusion 1)	52.9 nM	90.1 nM	102 nM	–	–	–
AGUACUAACACGCAAGUGUUAGUACAAUAAGCUUGUGAAACAUGAGGAUCACCCAUGUCCUCAUAAGCUCGUCUUAU [salish99_TOv2_r3_027] (puzzle: Sensor v3, turn-off variant 2)	16.2 nM	490 nM	16.5 nM	–	–	–
GAAAACGCAAAGGAUAUUACAGAUCAAAGCUGCUGAGAAGGUUGCACAUGAGGAUCACCCAUGUGGUCUUUCAA [Mod of Quesina 18 - Jieux - Exclusion 6] (Eterna round: R97, puzzle: Exclusion 6)	–	–	–	213 nM	27.3 nM	–
AGCAUGUUAGGAUAUGCCAAAAUUAACCACGACUCAGUGAUGCAGAAGGAACAUGAGGAUCACCCAUGUGCUCC [Eternabot (L1) Solution 16] (Eterna round: R97, puzzle: Exclusion 4)	–	–	–	219 nM	38.2 nM	–
GGUCUACAUGAGGAUCACCCAUGUUAGGAUAUGCUUCGUCGGGCUAUACACGGCGGAUGUAGAAGGGACCUGGU [Eternabot (L1) Solution 83] (Eterna round: R97, puzzle: Exclusion 1)	–	–	–	16.7 nM	20.2 nM	–
CCGAAAAGGAAGGAUAUGCUAGACGAAAGUCUAGCAGAAGGUCCUACAUGAGGAUCACCCAUGUGUCCUAUCGG [Mat - Exclusion 6 - Eli Mod - D39] (Eterna round: R97, puzzle: Exclusion 6)	–	–	–	49.9 nM	43.4 nM	–
AGAUGGCGAGGAUAUACAUGAGGAUCACCCAUGUGAAGAAUAAUAGUGAGGAAGAAAAGUAGAAGGCGCUGUCA [Mat - Exclusion 3 - Mod of Salish D33] (puzzle: Exclusion 3)	–	37 nM	–	–	–	–
GGAUGCUGAGUAAGGAUAUGGUAGGCUUGCGCAAACCAGAAGGUACAUGAGGAUCACCCAUGUAAGCAUCCAGU [eternacac ex4r4 #4] (Eterna round: R97, puzzle: Brourd's mod of Exclusion 4)	–	–	–	16.3 nM	14.5 nM	–
UAACAAGCUUUAAGAUCCUACAUGAGGAUCACCCAUGUGCUCGUCUUGUAACGUACUGUGACGAAAGUCACGGUACG [JL TOV1 3.16] (Eterna round: R97, puzzle: Sensor, turn-off variant 1)	–	–	–	236 nM	231 nM	–
UCAACCAGAGGAUAUGCGCAUAGAUCAGACUUUGUUUCUGAACAUGAGGAUCACCCAUGUAGAAGGCUGUAACC [Ex2 #78] (Eterna round: R97, puzzle: Exclusion 2)	–	–	–	28.5 nM	27.1 nM	–
AGCCUAGCAGGAUAUGCCCGGGAUAACAUGAGGAUCACCCAUGUGACUGAUUGAUGUCCUGCAGAAGGGCUAGGGA [JL-EX5-4.01 ViennaUCT mod] (Eterna round: R97, puzzle: Exclusion 5)	–	–	–	154 nM	25.9 nM	–
GAGGGACAUGAGGAUCACCCAUGUGAGGAUAUGUGAGAAGGAUUGGAGAGAAUAAGAAACAGAAGGCGCUGUAG [JR_Exclu1_Sub088] (puzzle: Exclusion 1)	107 nM	88.9 nM	138 nM	–	–	–
AAACCCUGAGGAUAUGCAUAACAACAAAGCCUCACGUGCCAACAUGAGGAUCACCCAUGUAGAAGGCAGGCCAA [Mod R3 Insanara 15 - Jieux - Exclusion 2] (Eterna round: R97, puzzle: Exclusion 2)	–	–	–	20.7 nM	15.3 nM	–
UGCAUGUGAGGAUAUGUACCUGAGUGCUUUGCGCUCAGGAAACAGAAGGCACAUGAGGAUCACCCAUGUGAAAA [jl-ex4-4.46 ViennaUCT mod] (Eterna round: R97, puzzle: Exclusion 4)	–	–	–	74.1 nM	208 nM	–
